Molecular target: IGF-1R on NCI-H322 cells (UniProt P08069 31-1367, limits assumed)
Assay: cell-based or functional assay

IGF-1R on NCI-H322 cells, sequence (P08069 31-1367 limits assumed): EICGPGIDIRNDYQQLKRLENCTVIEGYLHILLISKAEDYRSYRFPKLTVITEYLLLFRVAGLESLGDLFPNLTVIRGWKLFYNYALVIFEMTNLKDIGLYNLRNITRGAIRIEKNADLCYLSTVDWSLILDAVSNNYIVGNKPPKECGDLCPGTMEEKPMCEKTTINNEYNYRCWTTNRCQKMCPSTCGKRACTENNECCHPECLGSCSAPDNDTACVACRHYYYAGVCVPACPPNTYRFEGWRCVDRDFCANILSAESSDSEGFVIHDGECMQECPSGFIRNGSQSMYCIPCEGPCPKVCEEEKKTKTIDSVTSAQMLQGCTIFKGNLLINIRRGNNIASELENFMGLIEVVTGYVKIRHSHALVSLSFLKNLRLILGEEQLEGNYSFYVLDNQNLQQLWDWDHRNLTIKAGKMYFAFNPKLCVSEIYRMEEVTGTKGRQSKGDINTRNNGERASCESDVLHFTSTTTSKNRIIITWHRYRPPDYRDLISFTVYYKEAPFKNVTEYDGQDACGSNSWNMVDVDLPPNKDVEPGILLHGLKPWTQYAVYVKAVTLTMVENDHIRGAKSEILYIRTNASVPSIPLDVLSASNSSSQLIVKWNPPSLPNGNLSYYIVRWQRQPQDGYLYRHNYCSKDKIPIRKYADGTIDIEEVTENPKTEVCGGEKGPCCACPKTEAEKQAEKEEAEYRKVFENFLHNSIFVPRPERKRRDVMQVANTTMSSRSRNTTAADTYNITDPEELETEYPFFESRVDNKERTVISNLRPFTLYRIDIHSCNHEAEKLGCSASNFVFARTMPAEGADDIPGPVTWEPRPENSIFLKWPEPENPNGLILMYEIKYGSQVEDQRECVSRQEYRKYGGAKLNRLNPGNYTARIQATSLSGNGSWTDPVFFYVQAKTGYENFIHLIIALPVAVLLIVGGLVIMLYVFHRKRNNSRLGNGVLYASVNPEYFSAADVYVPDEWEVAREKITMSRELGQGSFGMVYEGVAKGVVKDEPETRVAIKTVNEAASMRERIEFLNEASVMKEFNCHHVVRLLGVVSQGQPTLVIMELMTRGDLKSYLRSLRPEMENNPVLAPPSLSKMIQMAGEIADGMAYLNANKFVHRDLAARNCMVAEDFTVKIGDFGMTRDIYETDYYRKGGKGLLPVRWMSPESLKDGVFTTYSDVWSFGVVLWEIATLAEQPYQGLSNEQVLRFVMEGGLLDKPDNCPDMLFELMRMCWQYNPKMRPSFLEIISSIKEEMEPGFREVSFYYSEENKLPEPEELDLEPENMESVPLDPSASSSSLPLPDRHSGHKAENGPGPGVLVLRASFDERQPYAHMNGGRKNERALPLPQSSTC

Binder	IC50 of inhibition of IGF-1R phosphorylation (antibody dilution started at 100 ug/mL, diluted 1/8) [µg/mL]
Teprotumumab reference antibody (antibody, V domains shown) VH: QVELVESGGGVVQPGRSQRLSCAASGFTFSSYGMHWVRQAPGKGLEWVAIIWFDGSSTYYADSVRGRFTISRDNSKNTLYLQMNSLRAEDTAVYFCARELGRRYFDLWGRGTLVSVSS VL: EIVLTQSPATLSLSPGERATLSCRASQSVSSYLAWYQQKPGQAPRLLIYDASKRATGIPARFSGSGSGTDFTLTISSLEPEDFAVYYCQQRSKWPPWTFGQGTKVESK	0.397
D03-YTE (clone D03 with the YTE mutation M252Y/S254T/T256E, EU numbering) (antibody, human IgG1, kappa, V domains shown) VH: QVELVESGGGVVQPGRSQRLSCAASGFTFSSHGMHWVRQAPGKGLEWVAYIWFDGSSTYYADSVRGRFTISRDNSKNTLYLQMNSLRAEDTAVYFCARELGRRYFDLWGRGTLVSVSS VL: EIVLTQSPATLSLSPGERATLSCRASQSVSSALAWYQQKPGQAPRLLIYDASKRATGIPARFSGSGSGTDFTLTISSLEPEDFAVYYCQQRSKYPPWTFGQGTKVESKR	0.0205
